Paper PMC6189696, “Choline sulfatase from Ensifer (Sinorhizobium) meliloti: Characterization of the unmodified enzyme” (Biochemistry and Biophysics Reports, 2015)

Key:
[1] = molecular target: T1, choline-O-sulfatase (COS) (Sinorhizobium meliloti, UniProt O69787); assay: spectrophotometric pNPS hydrolysis, […] nm; assay type: biochemical
T1 construct: gene betC; full length, C-terminal His6 tag kept, pET26b+, codon-optimized gene, E. coli BL21(DE3); 59 kDa, homodimer (123 kDa); active-site Cys54 unmodified (no formylglycine)

[2] = molecular target: T1, choline-O-sulfatase (COS); assay: isothermal titration calorimetry, multiple injections; assay type: biochemical; details: substrate inhibition constant, second site; 200 mM Tris-HCl pH 7.5, 500 mM NaCl, 25 °C; enzyme without FGly
Excerpt: (§1) isothermal titration calorimetry, multiple injections on choline-O-sulfatase (COS)

purified protein [3] = substrate: O=[N+]([O-])c1ccc(OS(=O)(=O)O)cc1; assay: purified protein; assay type: biochemical, Sinorhizobium meliloti; details: 200 mM Tris-HCl pH 7.5, 500 mM NaCl, 25 °C, 1-80 mM substrate, no saturation reached, enzyme without FGly
purified protein [4] = substrate: Cc1cc(=O)oc2cc(OS(=O)(=O)O)ccc12; assay: purified protein; assay type: biochemical, Sinorhizobium meliloti; details: 200 mM Tris-HCl pH 7.5, 500 mM NaCl, 25 °C, 1-20 mM substrate, no saturation reached, enzyme without FGly
[5] = molecular target: the molecule itself; assay: SEC; analytical gel filtration on Superdex 200 10/300 GL, non-denaturing conditions, calibrated with Bio-Rad Gel Filtration Standard (1.35-670 kDa)
[6] = substrate: C[N+](C)(C)CCOS(=O)(=O)[O-]; assay: isothermal titration calorimetry, multiple injections; assay type: biochemical, Sinorhizobium meliloti; details: 200 mM Tris-HCl pH 7.5, 500 mM NaCl, 25 °C, fit with substrate inhibition, enzyme without FGly
Excerpt: as §1

Question: `C[N+](C)(C)CCO` [choline] was tested. Which Ki [1] did it give?
Answer: 57.8 mM

Question: Which “Ki (mM) ^a” value [2] does the source give for `C[N+](C)(C)CCOS(=O)(=O)[O-]` [choline-O-sulfate] here?
Answer: 11.4 ± 1.1 mM

B1: Ensifer (Sinorhizobium) meliloti choline-O-sulfatase (enzyme, UniProt O69787 1-512, looked up)
chain: MTTGKPNILIIMVDQLNGKLFPDGPADFLHAPNLKALAKRSARFHNNYTSSPLCAPARASFMAGQLPSRTRVYDNAAEYQSSIPTYAHHLRRAGYYTALSGKMHFVGPDQLHGFEERLTTDIYPADFGWTPDYRKPGERIDWWYHNLGSVTGAGVAEITNQMEYDDEVAFLANQKLYQLSRENDDESRRPWCLTVSFTHPHDPYVARRKFWDLYEDCEHLTPEVGAIPLDEQDPHSQRIMLSCDYQNFDVTEENVRRSRRAYFANISYLDEKVGELIDTLTRTRMLDDTLILFCSDHGDMLGERGLWFKMNFFEGSARVPLMIAGPGIAPGLHLTPTSNLDVTPTLADLAGISLEEVRPWTDGVSLVPMVNGVERTEPVLMEYAAEASYAPLVAIREGKWKYVYCALDPEQLFDLEADPLELTNLAENPRGPVDQATLTAFRDMRAAHWDMEAFDAAVRESQARRWVVYEALRNGAYYPWDHQPLQKASERYMRNHMNLDTLEESKRYPRGE
notes: choline-O-sulfatase (betC gene product) of Ensifer (Sinorhizobium) meliloti, GenBank AAC13371.1; gene codon optimized for E. coli and subcloned in pET26b+; expected 59 kDa with the His6-tag; Active-site Cys54 is unmodified (no formylglycine) as expressed in E. coli; two of the six cysteines form a disulfide bridge; also called COS; choline sulfatase; source: E. coli BL21 (DE3), purified (His-Trap …)
Question: For B1, which Km (purified protein [3]) is on record?
Answer: 75.8 ± 15.0 mM

Question: And the kcat (purified protein [3])?
Answer: 0.035 ± 0.004 s⁻¹

Question: And the kcat/Km (purified protein [3])?
Answer: 0.46 ± 0.11 M⁻¹ s⁻¹

Question: And the Km (purified protein [4])?
Answer: 11.8 ± 1.4 mM

Question: And the kcat (purified protein [4])?
Answer: 0.043 ± 0.007 s⁻¹

Question: What about the kcat/Km (purified protein [4]) of the same molecule?
Answer: 3.64 ± 0.73 M⁻¹ s⁻¹

Question: And the “stoichiometry N” value [5]?
Answer: 2

Question: What about the Km [6] of the same molecule?
Answer: 11.1 ± 1.0 mM

Question: And the kcat [6]?
Answer: 0.27 ± 0.02 s⁻¹

Question: And the kcat/Km [6]?
Answer: 24.3 ± 2.84 M⁻¹ s⁻¹
